In article PMC8063735 one finds differential centrifugation after the light scatter assay: per cent of CS in the pellet and suppression of aggregation of chemically denatured CS, light scattering data, which are given here for two molecules.

In assay [1] the target is T1, citrate synthase (UniProt P00889).
T1 sequence: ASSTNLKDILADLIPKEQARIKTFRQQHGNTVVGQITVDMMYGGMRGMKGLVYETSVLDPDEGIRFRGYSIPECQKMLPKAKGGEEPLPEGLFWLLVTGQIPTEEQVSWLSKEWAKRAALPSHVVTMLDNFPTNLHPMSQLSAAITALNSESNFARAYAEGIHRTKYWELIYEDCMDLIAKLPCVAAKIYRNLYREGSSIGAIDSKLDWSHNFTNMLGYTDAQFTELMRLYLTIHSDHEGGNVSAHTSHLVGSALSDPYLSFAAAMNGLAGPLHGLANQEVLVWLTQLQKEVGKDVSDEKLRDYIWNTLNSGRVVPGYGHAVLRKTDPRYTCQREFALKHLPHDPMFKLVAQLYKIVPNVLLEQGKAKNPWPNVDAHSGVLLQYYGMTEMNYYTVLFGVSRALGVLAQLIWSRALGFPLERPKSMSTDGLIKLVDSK

The target in assay [2] is T1, citrate synthase. This is another data set of the same source.

Consider “Hsp110^ΔSBDβ (from UniProt Q9VUC1 1-804) (natural protein)”, for which the differential centrifugation after the light scatter assay: per cent of CS in the pellet in the assay with citrate synthase [1] is 4%.

B1: Drosophila melanogaster Hsp110 (Hsc70cb-encoded protein) (natural protein)
chain: MSVIGIDFGNESCYVAAARSGGIETLANDYSLRATPSFVAFDGKKRIIGVAAKNQQVTNMKNTVGGFKRLLGRKFNDPHVQHELTSIPARVEARGDGSIGIKVNYLGEDQHFGPEQLTAMLFTKLKETSAAAMQTQVNDCVIACPVFFTNAERKALLDAAQIAGLNVLRLMNETTATALAYGFYKNDLFEDKPRNVIFVDFGHSSLQASACAFTKGKLKMLASTWDQIGGRDIDLALGDYFAKEFQERYKINAKTNARANLRLLTEIEKLKKQMSANSTKLPLNIECFLDDIDVSSSMQRSQMEELCAPVLQRVEQTFKRLLAESKLQLDDIHSVEIVGGSSRIPSVKQLIEQVFNKPASTTLNQDEAVSRGAALQCAIMSPAVRVREFGVTDIQNYAVKVLWDSEGSAAPGEIEIFPQYHASPFSRLLTINRKGPFNVSIVYGQQVPYPDQTIGVWKVKDVKPTERGEGQDVKLKVRINNNGIVLISSATLVEKKEAEEAAAAAEQAASEEKPGDQTNNTGEPADGQQEGADKKKKASKATELPLECTTHGFSPVDLSNYTQQESKMIGNDQKETERIDAKNALEEFVYDMRNKLQGGPFERYVVEAEREKIVSQLNDLENWLYEDGEDCERDIYTSRLQALHQKTDPIKLRASDYEQGPAAFDELKNSIAIARLAVAEFRKGVPKYDHLTETEFINISETADKAQSWLDANLPKFTQSPRTADSPVQISAVRQEVQTLNSCVSSVINRAKPKPTPAKTATPPKDEANAEQNGGEPAANSGDKMDVDNNGQSAAGNDPSMEVE
The molecule B1 displayed a suppression of aggregation of chemically denatured CS, light scattering at 320 nm, chaperone to substrate 1:1, 2:1 and 4:1 with citrate synthase [2] of 50%.
